Source: the supplement of paper PMC10126150
± gives the standard deviation of the averaged measurements.

System: ATP
Experiment: switch fluorescence ratio, 500 uM ATP over buffer (Cy3 cluster intensity, sum of 5 cycles each) (fold (ratio)); higher = stronger signal-on switching upon ATP binding; sequences stand for … in TCGTCGGCAGCGTCAGATGTGTATAAGAGACAGTTTTTTTTTTTTTTTTTTTTTTTTT…TC
Conditions: aptamer strand: ATP DNA aptamer (quencher-CACCTGGGGGAGTATTGCGGAGGAAGG + anchor), 100 nM annealed; ATP concentration: 500 uM
How it was run: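 Imaging in selection buffer was followed by imaging after 15 min with 500 uM ATP at 22 °C, for Cy3-labelled switching-strand clusters annealed to 100 nM quencher-labelled ATP aptamer on a modified Illumina MiSeq flow-cell. Five of these buffer/ATP cycles ran, separated by NaOH stripping and re-annealing. The fluorescence ratio per cluster is summed target-cycle over summed buffer-cycle Cy3 intensity, averaged per switch-domain sequence; clusters outside 100-1000 RFU were removed.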
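Further: ATP exposure 15 min at 22 °C before imaging.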

Row | Sequence | switch fluorescence ratio
1 | CAAAACTACT | 1.06 ± 0.011
2 | CAAAAGTAAC | 1.07 ± 0.032
3 | CAAAAGTTGG | 0.9923 ± 0.0052
4 | CAAAATATGC | 1.14 ± 0.12
5 | CAAAATTTCG | 1.016 ± 0.0015
6 | CAAACAGTTT | 0.994 ± 0.029
7 | CAAACCAACG | 1.345 ± 0.0044
8 | CAAACGCGCG | 0.997 ± 0.045
9 | CAAACTTTGG | 1.006 ± 0.0077
10 | CAAAGAGTAG | 1.002 ± 0.005
11 | CAAAGTAAAA | 1.04 ± 0.054
12 | CAAAGTTCGC | 0.9838 ± 0.0076
13 | CAAATAGGCT | 0.984 ± 0.028
14 | CAAATCAGTG | 1.002 ± 0.01
15 | CAAATCGTCG | 0.957 ± 0.022
16 | CAAATGGGAT | 0.9951 ± 0.0099
17 | CAAATGGGCC | 0.993 ± 0.019
18 | CAAATGGGTT | 1.01 ± 0.083
19 | CAAATTGGAA | 0.961 ± 0.043
20 | CAAATTTGC | 0.9315 ± 0.0035
21 | CAAATTTGG | 1.05 ± 0.031
22 | CAACAGAGTG | 1.07 ± 0.085

Row | Sequence | switch fluorescence ratio
23 | CAACATCACG | 1.52 ± 0.057
24 | CAACATGATG | 0.995 ± 0.013
25 | CAACATTTCA | 1.01 ± 0.022
26 | CAACCAGTGT | 1.31 ± 0.026
27 | CAACCGGCCA | 1.11 ± 0.027
28 | CAACGTGTGG | 1.04 ± 0.072
29 | CAACTCCGGA | 1.204 ± 0.0066
30 | CAACTGCATA | 1.98 ± 0.063
31 | CAACTGGTAT | 1.17 ± 0.26
32 | CAAGAAGAGT | 1.01 ± 0.04
33 | CAAGAAGATG | 0.9523 ± 0.0012
34 | CAAGACAACT | 1.03 ± 0.033
35 | CAAGACAGCT | 1.02 ± 0.031
36 | CAAGATCATT | 1.008 ± 0.0036
37 | CAAGATGGTC | 0.987 ± 0.051
38 | CAAGATTGGA | 0.961 ± 0.025
39 | CAAGATTGTG | 1.01 ± 0.017
40 | CAAGCAAGAT | 2.58 ± 0.24
41 | CAAGCATAGG | 1.07 ± 0.072
42 | CAAGCGTCAC | 1.12 ± 0.019
43 | CAAGCTCTGT | 1.01 ± 0.016
44 | CAAGCTTTCG | 1.06 ± 0.048

Row | Sequence | switch fluorescence ratio
45 | CAAGGAAACG | 1.002 ± 0.0034
46 | CAAGGACTGT | 1.05 ± 0.016
47 | CAAGGAGATG | 1.01 ± 0.046
48 | CAAGGAGGGG | 1.017 ± 0.0074
49 | CAAGGATTAA | 1.006 ± 0.0012
50 | CAAGGCTTGA | 0.974 ± 0.022
51 | CAAGGGCGGC | 0.973 ± 0.012
52 | CAAGGGGATT | 1 ± 0.027
53 | CAAGGTAAGG | 0.984 ± 0.011
54 | CAAGGTAGGG | 0.968 ± 0.019
55 | CAAGGTGGTC | 0.995 ± 0.029
56 | CAAGGTTATG | 0.974 ± 0.013
57 | CAAGTAGCGA | 1.088 ± 0.0072
58 | CAAGTAGGGA | 1.01 ± 0.057
59 | CAAGTAGGGG | 0.9765 ± 0.0015
60 | CAAGTTAATT | 0.987 ± 0.011
61 | CAAGTTGTAC | 1.1 ± 0.019
62 | CAAGTTTGTA | 0.997 ± 0.021
63 | CAATAAAGGT | 1.08 ± 0.18
64 | CAATAAGATT | 1.016 ± 0.0077
65 | CAATAATATG | 0.993 ± 0.029
66 | CAATAATTTA | 1.004 ± 0.0086

Row | Sequence | switch fluorescence ratio
67 | CAATACAGTC | 1.03 ± 0.011
68 | CAATACTATA | 1.11 ± 0.067
69 | CAATACTTAT | 1.01 ± 0.019
70 | CAATAGATGT | 1.042 ± 0.0021
71 | CAATAGGGCA | 0.943 ± 0.024
72 | CAATAGTCAA | 1.05 ± 0.013
73 | CAATATGAAT | 1.02 ± 0.0057
74 | CAATATGATA | 1.003 ± 0.0011
75 | CAATATTGCC | 1.02 ± 0.051
76 | CAATCAATCG | 1.05 ± 0.017
77 | CAATCAGGAC | 1.06 ± 0.041
78 | CAATCTTGGG | 0.97144 ± 0.00089
79 | CAATGATCAG | 1.006 ± 0.0081
80 | CAATGATGAC | 1.01 ± 0.018
81 | CAATGGATGA | 1 ± 0.015
82 | CAATGGATTT | 1.026 ± 0.007
83 | CAATGGCCGG | 1.02 ± 0.028
84 | CAATGGCTTT | 0.9983 ± 0.0059
85 | CAATGGGGAA | 1 ± 0.014
